This experiment has as its target MVN-DAVEI4-3Trp (not stated | HIV-1 (strain not stated)). The experiment is described as follows: ELISA.

Substance “HIV-1 YU2 gp120 (from UniProt P35961 32-498) (natural protein)” displayed an EC50 of 79 nM. In other words, the double-digit nanomolar range.

As usually defined, the EC50 is the concentration that produces a half-maximal response. Low values mean a more potent agent, high ones a less potent agent.

The values above are taken from PMC5944358.
